The target of the data set is HA-SKP2 phosphorylated in vitro by AKT (32P-SKP2) (UniProt Q13309).
Chain of HA-SKP2 phosphorylated in vitro by AKT (32P-SKP2) (Q13309 whole entry, looked up): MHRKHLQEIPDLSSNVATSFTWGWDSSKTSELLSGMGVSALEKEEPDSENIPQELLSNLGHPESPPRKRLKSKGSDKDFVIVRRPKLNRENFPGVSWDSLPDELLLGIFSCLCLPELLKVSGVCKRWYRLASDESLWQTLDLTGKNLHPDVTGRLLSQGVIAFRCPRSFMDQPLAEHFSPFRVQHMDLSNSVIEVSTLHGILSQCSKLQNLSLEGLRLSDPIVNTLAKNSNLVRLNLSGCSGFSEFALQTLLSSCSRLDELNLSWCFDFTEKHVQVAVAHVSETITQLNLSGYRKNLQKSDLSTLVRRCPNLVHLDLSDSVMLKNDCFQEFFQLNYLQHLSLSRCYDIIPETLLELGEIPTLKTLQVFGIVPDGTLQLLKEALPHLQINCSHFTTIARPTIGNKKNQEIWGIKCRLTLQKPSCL

With flag-PTEN, the “removal of 32P from AKT-phosphorylated SKP2” value was “neither PTEN nor PPM1H exhibited any evidence of phosphatase activity on SKP2”.

The values above are taken from patent US20110151454.
